Experimental findings from publication PMC2879597 (Structure (London, England : 1993), 2010) are described below.

Assay [1] addresses T1, IL-22/sIL-22R1 binary complex (UniProt Q9GZX6 34-179; Q8N6P7 16-228).
T1 sequence (looked up) 1: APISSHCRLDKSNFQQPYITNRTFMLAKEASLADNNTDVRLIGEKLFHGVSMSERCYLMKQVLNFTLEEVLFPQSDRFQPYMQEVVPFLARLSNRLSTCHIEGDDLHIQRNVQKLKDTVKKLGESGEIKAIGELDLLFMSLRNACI
T1 sequence (looked up) 2: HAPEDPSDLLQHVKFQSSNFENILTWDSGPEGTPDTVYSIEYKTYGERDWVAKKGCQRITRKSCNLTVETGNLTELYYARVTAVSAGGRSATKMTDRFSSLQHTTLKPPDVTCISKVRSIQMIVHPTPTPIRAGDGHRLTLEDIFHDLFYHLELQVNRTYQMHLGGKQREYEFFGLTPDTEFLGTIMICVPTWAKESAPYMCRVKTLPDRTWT

In assay [2] the target is T2, cmvIL-10/sIL-10R1 binary complex (cytomegalovirus (CMV) | , UniProt P17150 20-175; Q13651 22-235).
T2 sequence 1: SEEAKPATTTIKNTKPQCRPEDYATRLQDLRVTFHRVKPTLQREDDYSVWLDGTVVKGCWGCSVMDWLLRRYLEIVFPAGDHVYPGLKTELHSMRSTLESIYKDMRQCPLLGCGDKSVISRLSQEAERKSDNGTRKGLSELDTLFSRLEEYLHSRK
T2 sequence 2: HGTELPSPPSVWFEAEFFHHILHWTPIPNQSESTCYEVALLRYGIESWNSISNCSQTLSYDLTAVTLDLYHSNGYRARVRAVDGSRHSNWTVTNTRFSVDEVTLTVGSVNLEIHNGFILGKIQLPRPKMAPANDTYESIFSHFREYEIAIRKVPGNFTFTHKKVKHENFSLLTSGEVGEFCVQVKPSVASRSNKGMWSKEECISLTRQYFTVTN
The experiment in a line: SPR. (SPR reads the build-up and loss of mass on a sensor chip optically.)

Assay [3] deals with hIL-10/sIL-10R1 binary complex (human | , UniProt P22301 19-178; Q13651 22-235). In words: SPR.
Chain of hIL-10/sIL-10R1 binary complex (P22301 19-178, one chain of several): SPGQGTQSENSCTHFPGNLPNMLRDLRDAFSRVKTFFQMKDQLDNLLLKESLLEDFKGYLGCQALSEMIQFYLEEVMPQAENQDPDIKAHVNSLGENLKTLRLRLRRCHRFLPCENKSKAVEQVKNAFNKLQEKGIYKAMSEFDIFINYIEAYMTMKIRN
In assay [4] the target is T1, IL-22/sIL-22R1 binary complex. In words: SPR.

B1: sIL-10R2-NQ (soluble extracellular IL-10R2 chain with N49Q, N68Q, N102Q, N161Q) (receptor, human, UniProt Q08334 20-220, looked up)
chain: MVPPPENVRMNSVNFKNILQWESPAFAKGQLTFTAQYLSYRIFQDKCMQTTLTECDFSSLSKYGDHTLRVRAEFADEHSDWVQITFCPVDDTIIGPPGMQVEVLADSLHMRFLAPKIENEYETWTMKNVYNSWTYNVQYWKQGTDEKFQITPQYDFEVLRNLEPWTTYCVQVRGFLPDRNKAGEWSEPVCEQTTHDETVPS
One may read the Kd as the equilibrium constant for the complex coming apart. A high value points to weaker binding. In assay [1], B1 had a Kd of 14 µM.

B2: sIL-10R2 Y140A (on sIL-10R2-NQ) (receptor, human, UniProt Q08334 20-220, looked up)
chain: MVPPPENVRMNSVNFKNILQWESPAFAKGQLTFTAQYLSYRIFQDKCMQTTLTECDFSSLSKYGDHTLRVRAEFADEHSDWVQITFCPVDDTIIGPPGMQVEVLADSLHMRFLAPKIENEAETWTMKNVYNSWTYNVQYWKQGTDEKFQITPQYDFEVLRNLEPWTTYCVQVRGFLPDRNKAGEWSEPVCEQTTHDETVPS
Consider B2, for which the “percent of wild-type binding (normalized RU)” value (from here on “percent … (normalized RU)”) in assay [2] and in assay [3] was ~20 % of WT each time.

B3: sIL-10R2 Y173A (on sIL-10R2-NQ) (receptor, human, UniProt Q08334 20-220, looked up)
chain: MVPPPENVRMNSVNFKNILQWESPAFAKGQLTFTAQYLSYRIFQDKCMQTTLTECDFSSLSKYGDHTLRVRAEFADEHSDWVQITFCPVDDTIIGPPGMQVEVLADSLHMRFLAPKIENEYETWTMKNVYNSWTYNVQYWKQGTDEKFQITPQADFEVLRNLEPWTTYCVQVRGFLPDRNKAGEWSEPVCEQTTHDETVPS
As to B3, the “percent … (normalized RU)” value in assay [4] is 65 % of WT.

B4: sIL-10R2 Y56A (on sIL-10R2-NQ) (receptor, human, UniProt Q08334 20-220, looked up)
chain: MVPPPENVRMNSVNFKNILQWESPAFAKGQLTFTAQALSYRIFQDKCMQTTLTECDFSSLSKYGDHTLRVRAEFADEHSDWVQITFCPVDDTIIGPPGMQVEVLADSLHMRFLAPKIENEYETWTMKNVYNSWTYNVQYWKQGTDEKFQITPQYDFEVLRNLEPWTTYCVQVRGFLPDRNKAGEWSEPVCEQTTHDETVPS
On to B4, for which the “percent … (normalized RU)” value in assay [2] and in assay [3] was ~20 % of WT throughout.

B5: sIL-10R2 Y59A (on sIL-10R2-NQ) (receptor, human, UniProt Q08334 20-220, looked up)
chain: MVPPPENVRMNSVNFKNILQWESPAFAKGQLTFTAQYLSARIFQDKCMQTTLTECDFSSLSKYGDHTLRVRAEFADEHSDWVQITFCPVDDTIIGPPGMQVEVLADSLHMRFLAPKIENEYETWTMKNVYNSWTYNVQYWKQGTDEKFQITPQYDFEVLRNLEPWTTYCVQVRGFLPDRNKAGEWSEPVCEQTTHDETVPS
Turning to B5, the “percent … (normalized RU)” value in assay [2], in assay [3] and in assay [4] was ~50 % of WT each time.

B6: glycosylated sIL-10R2 (receptor, human, UniProt Q08334 20-220, looked up)
chain: MVPPPENVRMNSVNFKNILQWESPAFAKGNLTFTAQYLSYRIFQDKCMNTTLTECDFSSLSKYGDHTLRVRAEFADEHSDWVNITFCPVDDTIIGPPGMQVEVLADSLHMRFLAPKIENEYETWTMKNVYNSWTYNVQYWKNGTDEKFQITPQYDFEVLRNLEPWTTYCVQVRGFLPDRNKAGEWSEPVCEQTTHDETVPS
modifications: N-linked glycosylation sites N49, N68, N102 and N161 (glycosylated)
With B6, the Kd in assay [1] stood at 7 µM. In other words, the single-digit micromolar range.
